# Assay results as given in FireProtDB (doi:10.1002/pro.5560060808).
# B1: Guanyl-specific ribonuclease T1 wild type, P00651 (protein)
# chain: MMYSKLLTLTTLLLPTALALPSLVERACDYTCGSNCYSSSDVSTAQAAGYQLHEDGETVGSNSYPHKYNNYEGFDFSVSSPYYEWPILSSGDVYSGGSPGADRVVFNENNQLAGVITHTGASGNNFVECT
# Conditions: Aspergillus oryzae (strain ATCC 42149 / RIB 40), Thermal, DSC, reversible: yes, whole UniProt chain shown
# [1] = pH 4.5, Acetic acid-Sodium acetate 0.1 M
protein,measurement,setting,value
B1,Tm,"pH 3, glycine-HCl 0.1 M",52.4 °C
same,heat capacity change of unfolding,"pH 3, glycine-HCl 0.1 M",1.2 kcal/mol/K
same,unfolding enthalpy (calorimetric),"pH 3, glycine-HCl 0.1 M",99.3 kcal/mol
same,Tm,"pH 3.5, glycine-HCl 0.1 M",54.7 °C
same,heat capacity change of unfolding,"pH 3.5, glycine-HCl 0.1 M",1.44 kcal/mol/K
same,unfolding enthalpy (calorimetric),"pH 3.5, glycine-HCl 0.1 M",103 kcal/mol
same,Tm,[1],59.2 °C
same,heat capacity change of unfolding,[1],1.17 kcal/mol/K
same,unfolding enthalpy (calorimetric),[1],109 kcal/mol
same,Tm,"pH 6, MES 0.1 M",62.4 °C
same,heat capacity change of unfolding,"pH 6, MES 0.1 M",1.39 kcal/mol/K
same,unfolding enthalpy (calorimetric),"pH 6, MES 0.1 M",112 kcal/mol
